Assay results: patent US20200325236A1 (REYOUNG SUZHOU BIOLOGY SCIENCE AND TECHNOLOGY, published 2020)
Values belong to the binder of their own block, whether it stands above or below them.

Legend:
human 4-1BB protein [1] = target: T1, human 4-1BB protein (human, UniProt Q07011 24-186, limits assumed); test: ELISA, human 4-1BB coated at 1 ug/mL, HRP goat-anti-human IgG detection
T1 construct: Coating protein in the ELISAs of Embodiments 4 and 5; also called h4-1BB
Method: (§1) The cross-reactive activity of the antibody with cynomolgus monkey 4-1BB molecules is determined by ELISA. The ELISA comprises steps of coating the human 4-1BB or cynomolgus monkey 4-1BB (1 μg/mL) with the ELISA plate, incubating overnight at 4 DEG C.; washing three times with PBST (0.1% Tween 20), blocking with 3% BSA for 1 h; washing three times, adding the purified anti-human 4-1BB antibody prepared in the embodiment 2 and incubating for 1 h; washing three times and adding horse radish peroxidase (HRP) labeled goat-anti-human IgG (1:2000 dilution) and incubating for 1 h; washing three times, then adding the substrate solution (TMB) and developing the color at room temperature in the dark; and finally, adding the stop solution (2N H₂SO₄) and reading the optical density (OD) value at 450 nm.

[2] = target: cynomolgus monkey 4-1BB protein (cynomolgus monkey); test: ELISA, cynomolgus monkey 4-1BB coated at 1 ug/mL, HRP goat-anti-human IgG detection
Method: as §1

[3] = target: T2, human 4-1BB-Fc fusion protein (human, UniProt Q07011 24-186); test: SPR, Biacore T200, h4-1BB-Fc amine-coupled to chip, antibody 0.3125-5.0 ug/mL as analyte
T2 construct: Antigen amine-coupled to the Biacore chip; also called h4-1BB-Fc fusion protein; h4-1BB; not shown: Fc part
Method: Affinity of the antibody: determining binding kinetics of the purified antibody which is prepared in the embodiment 2 and the h4-1BB by using BIAcore T200; coupling 1 mg/mL antigen (h4-1BB-Fc fusion protein) to the surface of a CMS chip by using an amino coupling method, binding at 30 μL/min for 300 s when the concentration of the antibody is within 0.3125-5.0 μg/mL and then dissociating for 300 s; and analyzing data recorded by the Biacore T200 by using Biacore T200 Evaluation Software, wherein analysis results are as shown in Table 1.

human 4-1BB protein [4] = target: T1, human 4-1BB protein; test: ELISA, plate coated with human 4-1BB protein (1 ug/mL), HRP goat anti-human IgG, OD 450 nm
human OX-40 protein = target: T3, human OX-40 protein (human, UniProt P43489 29-214, limits assumed); test: ELISA, plate coated with human OX-40 protein (1 ug/mL), HRP goat anti-human IgG, OD 450 nm
T3 construct: Homologous family member used as the specificity control
T3 sequence (looked up): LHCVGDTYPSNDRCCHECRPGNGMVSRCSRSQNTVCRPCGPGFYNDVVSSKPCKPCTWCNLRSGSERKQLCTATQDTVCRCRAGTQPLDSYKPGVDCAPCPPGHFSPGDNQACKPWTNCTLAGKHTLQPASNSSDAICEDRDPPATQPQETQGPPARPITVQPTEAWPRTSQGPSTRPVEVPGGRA

human 4-1BB protein [5] = target: T1, human 4-1BB protein; test: ELISA of binding activity before and after humanization; the coated antigen is not named there, taken as 4-1BB from the legend and axis

EC50 (human 4-1BB protein [1]): 0.67 nM
EC50 [2]: 2.67 nM
Kd [3]: 0.0934 nM
koff [3]: 1.37e-05 s⁻¹
kon [3]: 146000 M⁻¹ s⁻¹
EC50 (read off the curve) (human 4-1BB protein [4]): ~0.1 µg/mL
binding result (human OX-40 protein): no binding
EC50 (read off the curve) (human 4-1BB protein [5]): ~0.09 µg/mL
B1: ab1 chimeric antibody (anti-human 4-1BB antibody ab1) (antibody, human IgG1, V domains shown)
VH: QVQLQQSGAELVRPGTSVKISCKASGYAFTNYWLGWVKQRPGHGLEWIGDIYPGNGNSYYNEKFKGRATLTADKSSSTVYMQLSSLTSEDSVVYFCTRSSSYYRDVMDYWGQGTSVTVSS
VL: DIQMTQSPASLSASVGETVTITCRASENIYSYLVWYQQKQGKSPQLLVYNAKTLAEGVSSRFSGSGSGTQFSLKINSLQPEDFGSYYCQHHYGTPLTFGAGTKLELKR
notes: also called anti-h4-1BB chimeric antibody; anti-h4-1BB monoclonal antibody

EC50 (read off the curve) (human 4-1BB protein [5]): ~0.05 µg/mL
B2: Humanized 4-1BB antibody (antibody, V domains shown)
VH: QVQLVQSGAEVKKPGASVKVSCKASGYAFTNYWLGWVRQAPGHGLEWMGDIYPGNGNSYYAQKFQGRVTMTRDKSSSTVYMELSSLRSEDTAVYFCTRSSSYYRDVMDYWGQGTLVTVSS
VL: DIQLTQSPSFLSASVGDRVTITCRASENIYSYLVWYQQKPGKAPKLLIYNAKTLAEGVPSRFSGSGSGTEFTLTISSLQPEDFATYYCQHHYGTPLTFGAGTKLEIKR
notes: ab1 after humanization by template replacement with back mutations; also called humanized anti-human 4-1BB antibody; ab1 humanized antibody
